Assay results as given in the Human Domainome abundance scans (Beltran et al. 2025).
± gives the uncertainty stated by the source.

B1: Homeobox protein cut-like 1, residues 941 to 1008; numbered along this chain, P39880 (parent)
chain: QEVDTIELTRQVKEKLAKNGICQRIFGEKVLGLSQGSVSDMLSRPKPWSKLTQKGREPFIRMQLWLNG

Variants of: B1
Test: abundance fitness (aPCA) (normalised: wild type 0, dead -1); higher = more abundant; growth selection in yeast, the domain comes from the species named
Settings: Homo sapiens

Row | Variant | abundance fitness
1 | QEVDTIELTRQVKEKLAKNGICQRIFGEKVLGLSQGSVSDMLSRPKPWSKLTQKRREPFIRMQLWLNG [G55R] | -0.38 ± 0.062
2 | QEVDTIELTRQVKEKLAKNGICQRIFGEKVLGLSQGSVSDMLSRPKPWSKLTQKMREPFIRMQLWLNG [G55M] | -0.018 ± 0.092
3 | QEVDTIELTRQVLEKLAKNGICQRIFGEKVLGLSQGSVSDMLSRPKPWSKLTQKGREPFIRMQLWLNG [K13L] | -0.326 ± 0.045
4 | QEVDTIELTRQVREKLAKNGICQRIFGEKVLGLSQGSVSDMLSRPKPWSKLTQKGREPFIRMQLWLNG [K13R] | -0.119 ± 0.056
5 | QEVDDIELTRQVKEKLAKNGICQRIFGEKVLGLSQGSVSDMLSRPKPWSKLTQKGREPFIRMQLWLNG [T5D] | -0.412 ± 0.092
6 | QEVDMIELTRQVKEKLAKNGICQRIFGEKVLGLSQGSVSDMLSRPKPWSKLTQKGREPFIRMQLWLNG [T5M] | -0.02 ± 0.067
7 | QEVDTIELTRQVKEKLAKNGILQRIFGEKVLGLSQGSVSDMLSRPKPWSKLTQKGREPFIRMQLWLNG [C22L] | -0.102 ± 0.056
8 | QEVDTIELTRQVKEKLAKNGICQRIFGEKVLGLSQGSVSDILSRPKPWSKLTQKGREPFIRMQLWLNG [M41I] | -0.016 ± 0.086
9 | QEVDTIELTRQVKEKLAKNGICQRIFGEKVLGLSQGSVSDGLSRPKPWSKLTQKGREPFIRMQLWLNG [M41G] | -0.239 ± 0.059
10 | QEVDTIELTRQVKEKLAKNGICQRIFGEKVLGLSQGSVSDMLSRPKPWSKLTLKGREPFIRMQLWLNG [Q53L] | -0.082 ± 0.062
11 | QEVDTIELTRQVKEKLAKNGICQRIFGEKVLGLSQGSVSDMLSRPKPWSKLTNKGREPFIRMQLWLNG [Q53N] | -0.045 ± 0.15
12 | QEVDTIELTRQVKEKLAKNGICQRIFGEKVLGLSQGSVSDMLSRPKPWSKLTCKGREPFIRMQLWLNG [Q53C] | 0.012 ± 0.11
13 | QEVDTIELTRQVKEKLAKNGICQRIFGEKVLGLSQGSVSDMLSRPKPWSCLTQKGREPFIRMQLWLNG [K50C] | -0.07 ± 0.069
14 | QEVDTIELTRQVKEKLAKNGICQRIFGEKVLGLSQGSVSDMLSRPKPWSQLTQKGREPFIRMQLWLNG [K50Q] | 0.028 ± 0.071
15 | QEVDTIELTRQVKEKLAKNGICQRIFGEKVLGLSQGSVSDMLSRPKPWSYLTQKGREPFIRMQLWLNG [K50Y] | -0.138 ± 0.092
16 | QEVDTIELTRQVKEKLAKNGICQRIFGEKVLGLSQGSVSDMLSRPKPWSALTQKGREPFIRMQLWLNG [K50A] | -0.098 ± 0.058
17 | QEVDTIELTRQVKEKLAKNGICQRIFGEKVLGLSQGSVSDMLSRPVPWSKLTQKGREPFIRMQLWLNG [K46V] | -0.112 ± 0.054
18 | QEVDTIELTRQVKEKLAKNGICQRIFGEKVLGLSQGSVSDMLSRPLPWSKLTQKGREPFIRMQLWLNG [K46L] | -0.07 ± 0.05
19 | QEVDTIEATRQVKEKLAKNGICQRIFGEKVLGLSQGSVSDMLSRPKPWSKLTQKGREPFIRMQLWLNG [L8A] | 0.051 ± 0.069
20 | QSVDTIELTRQVKEKLAKNGICQRIFGEKVLGLSQGSVSDMLSRPKPWSKLTQKGREPFIRMQLWLNG [E2S] | -0.135 ± 0.027

Row | Variant | abundance fitness
21 | QGVDTIELTRQVKEKLAKNGICQRIFGEKVLGLSQGSVSDMLSRPKPWSKLTQKGREPFIRMQLWLNG [E2G] | -0.081 ± 0.027
22 | QEVDTIELTRQVKEKLAKNGICQWIFGEKVLGLSQGSVSDMLSRPKPWSKLTQKGREPFIRMQLWLNG [R24W] | -0.144 ± 0.065
23 | QEVDTIELTRQVKEKLAKNGICQRIFGEKVRGLSQGSVSDMLSRPKPWSKLTQKGREPFIRMQLWLNG [L31R] | -0.15 ± 0.052
24 | QEVDTIELTRQVKEKLAKNGICQRIFGEKVMGLSQGSVSDMLSRPKPWSKLTQKGREPFIRMQLWLNG [L31M] | -0.191 ± 0.068
25 | QEVDTIELTRQVKEKLAKNGICQRIFGEKVLGLSQGSVSDMLWRPKPWSKLTQKGREPFIRMQLWLNG [S43W] | -0.407 ± 0.072
26 | QEVDTIELTRQVKEELAKNGICQRIFGEKVLGLSQGSVSDMLSRPKPWSKLTQKGREPFIRMQLWLNG [K15E] | -0.083 ± 0.13
27 | QEVDTIELTRQVKEHLAKNGICQRIFGEKVLGLSQGSVSDMLSRPKPWSKLTQKGREPFIRMQLWLNG [K15H] | -0.259 ± 0.11
28 | QEVDTIELTRQVKEKLAKNGICQRIFGEKVLGLSQGSVSDMLSRPKMWSKLTQKGREPFIRMQLWLNG [P47M] | -0.12 ± 0.08
29 | QEVDTIELTRQVKEKLAKNGICQRIFGEKVLGLSQGSVSDMLSRPKEWSKLTQKGREPFIRMQLWLNG [P47E] | -0.067 ± 0.073
30 | QEVDTIELTRQVKEKLAKNGICQRIFGEKVLGLSQGSVSDMLSRPKYWSKLTQKGREPFIRMQLWLNG [P47Y] | -0.25 ± 0.11
31 | QEVDTIELTRQVKEKLAKNGICQRIFGEKVLGLSQGSVSDMLSRPKPWSKLTQKGREDFIRMQLWLNG [P58D] | -0.13 ± 0.12
32 | QEVDTIELTRQVKEKLAKNGICQRIFGEKVLGLSQGSVSDMLSRPKPWSKLTQKGREHFIRMQLWLNG [P58H] | -0.135 ± 0.096
33 | QEVDTIELTRQVKEKLAKNGICQRIFGEKVLGLSQGSVSDMLSRPKPWSKLTQKGRETFIRMQLWLNG [P58T] | 0.052 ± 0.076
34 | QEVLTIELTRQVKEKLAKNGICQRIFGEKVLGLSQGSVSDMLSRPKPWSKLTQKGREPFIRMQLWLNG [D4L] | -0.572 ± 0.048
35 | QEVDTIELTRQVKEKLAKNGICQRQFGEKVLGLSQGSVSDMLSRPKPWSKLTQKGREPFIRMQLWLNG [I25Q] | -0.073 ± 0.083
36 | QEVDTIELTRQVKEKLAKNGICQRPFGEKVLGLSQGSVSDMLSRPKPWSKLTQKGREPFIRMQLWLNG [I25P] | -0.578 ± 0.092
37 | QEVDTIELTRQVKEKLAKNGICQRIFGEKVLGFSQGSVSDMLSRPKPWSKLTQKGREPFIRMQLWLNG [L33F] | -0.134 ± 0.067
38 | QEVDTIELTRQVKEKLAKNGICQRIFGEKVLGLSQGSVSDMLSRPKPWSKLTQKGREPFIRMQLWENG [L66E] | -0.909 ± 0.15
39 | QEVDTIELTRQVKEKLAKNGICQRIFGEKVLGLSQGSVSDMLSRPKPWSKLTQNGREPFIRMQLWLNG [K54N] | -0.319 ± 0.11
40 | QEVDTIELTRQVKEKLAKNGICQRIFGEKVLGLSQGSVSDMLSRPKPWSKLTQVGREPFIRMQLWLNG [K54V] | -0.346 ± 0.071
